From PMC9482650, “Quantitative fragmentomics allow affinity mapping of interactomes” (Nature Communications, 2022)

T1: PCLO, Q9Y6V0
T1 sequence (Q9Y6V0 4491-4600, limits assumed, looked up): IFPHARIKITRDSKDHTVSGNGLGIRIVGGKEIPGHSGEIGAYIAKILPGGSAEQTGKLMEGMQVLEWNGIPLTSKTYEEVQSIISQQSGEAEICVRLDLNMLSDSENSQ

T2: RHPN1, Q8TCX5
T2 sequence (Q8TCX5 508-602, limits assumed, looked up): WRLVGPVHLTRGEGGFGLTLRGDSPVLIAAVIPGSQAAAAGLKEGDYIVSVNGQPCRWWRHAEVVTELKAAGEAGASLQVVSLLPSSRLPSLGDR

T3: NHERF3_4, Q5T2W1
T3 sequence (Q5T2W1 373-468, limits assumed, looked up): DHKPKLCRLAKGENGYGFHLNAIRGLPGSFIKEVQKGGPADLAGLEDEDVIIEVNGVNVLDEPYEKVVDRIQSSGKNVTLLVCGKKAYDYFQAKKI

T4: MPDZ_5, O75970
T4 sequence (O75970 695-796, limits assumed, looked up): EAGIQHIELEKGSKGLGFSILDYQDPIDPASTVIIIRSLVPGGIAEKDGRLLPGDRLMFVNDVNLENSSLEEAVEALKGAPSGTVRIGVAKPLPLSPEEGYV

T5: LRRC7, Q96NW7
T5 sequence (Q96NW7 1440-1537, limits assumed, looked up): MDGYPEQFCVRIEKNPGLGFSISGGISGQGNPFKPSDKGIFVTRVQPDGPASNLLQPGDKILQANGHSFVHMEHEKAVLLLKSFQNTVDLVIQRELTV

T6: SNTA1, Q13424
T6 sequence (Q13424 82-180, limits assumed, looked up): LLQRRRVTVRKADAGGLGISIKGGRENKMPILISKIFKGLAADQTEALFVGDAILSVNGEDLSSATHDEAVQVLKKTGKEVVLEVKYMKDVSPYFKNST

T7: SYNJ2BP, P57105
T7 sequence (P57105 8-110, limits assumed, looked up): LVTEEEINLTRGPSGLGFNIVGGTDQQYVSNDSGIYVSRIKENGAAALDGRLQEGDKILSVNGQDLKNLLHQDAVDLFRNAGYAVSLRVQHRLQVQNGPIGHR

T8: NHERF3_3, Q5T2W1
T8 sequence (Q5T2W1 238-333, limits assumed, looked up): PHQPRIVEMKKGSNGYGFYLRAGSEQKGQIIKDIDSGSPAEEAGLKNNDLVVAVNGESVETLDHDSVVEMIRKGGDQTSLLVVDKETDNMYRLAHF

T9: GRIP1_7, Q9Y3R0
T9 sequence (Q9Y3R0 999-1096, limits assumed, looked up): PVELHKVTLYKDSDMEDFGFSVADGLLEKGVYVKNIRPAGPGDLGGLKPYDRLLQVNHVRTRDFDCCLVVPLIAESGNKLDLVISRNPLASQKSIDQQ

T10: GRIP1_3, Q9Y3R0
T10 sequence (Q9Y3R0 247-346, limits assumed, looked up): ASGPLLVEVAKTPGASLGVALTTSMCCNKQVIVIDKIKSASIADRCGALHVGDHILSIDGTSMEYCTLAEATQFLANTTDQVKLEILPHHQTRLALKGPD

T11: TX1BP3, O14907
T11 sequence (O14907 10-122, limits assumed, looked up): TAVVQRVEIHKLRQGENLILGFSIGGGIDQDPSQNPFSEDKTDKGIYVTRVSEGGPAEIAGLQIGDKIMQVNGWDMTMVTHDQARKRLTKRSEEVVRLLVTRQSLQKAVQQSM

T12: MPP7, Q5T2T1
T12 sequence (Q5T2T1 134-230, limits assumed, looked up): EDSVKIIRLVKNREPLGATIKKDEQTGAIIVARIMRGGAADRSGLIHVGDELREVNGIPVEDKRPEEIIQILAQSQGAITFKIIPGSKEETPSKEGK


target: T1, PCLO, Q9Y6V0; assay: holdup assay; parameters: key: below the threshold = too weak to quantify, mostly under pKd 3.1 to 4; conditions: plain residues with an end cap or a label only (N-terminal biotin on a linker: ado-ado)

Binder	pKd
SAAKVLTSMC [GHRHR, Q02643]	below the threshold
QSARLWETSI [ADAM22, Q9P0K1]	below the threshold
MLSKQSESAI [FLVCR1, Q9Y5Y0]	below the threshold

target: GRID2IP_2, A4D2P6; assay: holdup assay; parameters: key: below the threshold = too weak to quantify, mostly under pKd 3.1 to 4; conditions: plain residues with an end cap or a label only (N-terminal biotin on a linker: ado-ado)
Sequence (A4D2P6 272-370): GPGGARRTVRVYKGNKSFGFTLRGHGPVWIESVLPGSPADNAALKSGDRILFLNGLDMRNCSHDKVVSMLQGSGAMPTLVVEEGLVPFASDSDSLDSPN

Binder	pKd
SAAKVLTSMC [GHRHR, Q02643]	4.38
QSARLWETSI [ADAM22, Q9P0K1]	4.3
MLSKQSESAI [FLVCR1, Q9Y5Y0]	below the threshold

target: MAGI2_3, Q86UL8; assay: holdup assay; parameters: key: below the threshold = too weak to quantify, mostly under pKd 3.1 to 4; conditions: plain residues with an end cap or a label only (N-terminal biotin on a linker: ado-ado)
Sequence (Q86UL8 600-682): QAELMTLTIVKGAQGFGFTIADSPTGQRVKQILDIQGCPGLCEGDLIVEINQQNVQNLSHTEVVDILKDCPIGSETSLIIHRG

Binder	pKd
SAAKVLTSMC [GHRHR, Q02643]	below the threshold
QSARLWETSI [ADAM22, Q9P0K1]	below the threshold
MLSKQSESAI [FLVCR1, Q9Y5Y0]	below the threshold

target: MAGI2_4, Q86UL8; assay: holdup assay; parameters: key: below the threshold = too weak to quantify, mostly under pKd 3.1 to 4; conditions: plain residues with an end cap or a label only (N-terminal biotin on a linker: ado-ado)
Sequence (Q86UL8 772-865): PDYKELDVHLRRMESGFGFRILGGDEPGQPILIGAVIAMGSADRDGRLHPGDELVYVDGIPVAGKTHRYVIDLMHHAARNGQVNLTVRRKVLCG

Binder	pKd
SAAKVLTSMC [GHRHR, Q02643]	below the threshold
QSARLWETSI [ADAM22, Q9P0K1]	below the threshold
MLSKQSESAI [FLVCR1, Q9Y5Y0]	3.54

target: PDZRN4_1, Q6ZMN7; assay: holdup assay; parameters: key: below the threshold = too weak to quantify, mostly under pKd 3.1 to 4; conditions: plain residues with an end cap or a label only (N-terminal biotin on a linker: ado-ado)
Sequence (Q6ZMN7 213-318): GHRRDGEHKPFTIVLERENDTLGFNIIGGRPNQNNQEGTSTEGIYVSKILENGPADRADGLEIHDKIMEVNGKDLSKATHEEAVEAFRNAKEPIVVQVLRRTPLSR

Binder	pKd
SAAKVLTSMC [GHRHR, Q02643]	below the threshold
QSARLWETSI [ADAM22, Q9P0K1]	5
MLSKQSESAI [FLVCR1, Q9Y5Y0]	3.62

target: T2, RHPN1, Q8TCX5; assay: holdup assay; parameters: key: below the threshold = too weak to quantify, mostly under pKd 3.1 to 4; conditions: plain residues with an end cap or a label only (N-terminal biotin on a linker: ado-ado)

Binder	pKd
SAAKVLTSMC [GHRHR, Q02643]	4.06
QSARLWETSI [ADAM22, Q9P0K1]	4.57
MLSKQSESAI [FLVCR1, Q9Y5Y0]	4.01

target: DLG2_3, Q15700; assay: holdup assay; parameters: key: below the threshold = too weak to quantify, mostly under pKd 3.1 to 4; conditions: plain residues with an end cap or a label only (N-terminal biotin on a linker: ado-ado)

Binder	pKd
SAAKVLTSMC [GHRHR, Q02643]	3.8
QSARLWETSI [ADAM22, Q9P0K1]	4.47
MLSKQSESAI [FLVCR1, Q9Y5Y0]	below the threshold

target: T3, NHERF3_4, Q5T2W1; assay: holdup assay; parameters: key: below the threshold = too weak to quantify, mostly under pKd 3.1 to 4; conditions: plain residues with an end cap or a label only (N-terminal biotin on a linker: ado-ado)

Binder	pKd
SAAKVLTSMC [GHRHR, Q02643]	4
QSARLWETSI [ADAM22, Q9P0K1]	below the threshold
MLSKQSESAI [FLVCR1, Q9Y5Y0]	below the threshold

target: T4, MPDZ_5, O75970; assay: holdup assay; parameters: key: below the threshold = too weak to quantify, mostly under pKd 3.1 to 4; conditions: plain residues with an end cap or a label only (N-terminal biotin on a linker: ado-ado)

Binder	pKd
SAAKVLTSMC [GHRHR, Q02643]	below the threshold
QSARLWETSI [ADAM22, Q9P0K1]	below the threshold
MLSKQSESAI [FLVCR1, Q9Y5Y0]	below the threshold

target: T5, LRRC7, Q96NW7; assay: holdup assay; parameters: key: below the threshold = too weak to quantify, mostly under pKd 3.1 to 4; conditions: plain residues with an end cap or a label only (N-terminal biotin on a linker: ado-ado)

Binder	pKd
SAAKVLTSMC [GHRHR, Q02643]	below the threshold
QSARLWETSI [ADAM22, Q9P0K1]	below the threshold
MLSKQSESAI [FLVCR1, Q9Y5Y0]	below the threshold

target: DLG5_1, Q8TDM6; assay: holdup assay; parameters: key: below the threshold = too weak to quantify, mostly under pKd 3.1 to 4; conditions: plain residues with an end cap or a label only (N-terminal biotin on a linker: ado-ado)
Sequence (Q8TDM6 617-713): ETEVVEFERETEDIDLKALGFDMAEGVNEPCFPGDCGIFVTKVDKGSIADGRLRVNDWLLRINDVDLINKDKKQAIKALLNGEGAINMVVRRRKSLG

Binder	pKd
SAAKVLTSMC [GHRHR, Q02643]	below the threshold
QSARLWETSI [ADAM22, Q9P0K1]	below the threshold
MLSKQSESAI [FLVCR1, Q9Y5Y0]	below the threshold

target: MAST1, Q9Y2H9; assay: holdup assay; parameters: key: below the threshold = too weak to quantify, mostly under pKd 3.1 to 4; conditions: plain residues with an end cap or a label only (N-terminal biotin on a linker: ado-ado)
Sequence (Q9Y2H9 962-1065): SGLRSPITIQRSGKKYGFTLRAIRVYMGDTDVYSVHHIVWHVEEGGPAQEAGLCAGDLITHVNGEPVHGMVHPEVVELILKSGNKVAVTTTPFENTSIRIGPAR

Binder	pKd
SAAKVLTSMC [GHRHR, Q02643]	below the threshold
QSARLWETSI [ADAM22, Q9P0K1]	4.92
MLSKQSESAI [FLVCR1, Q9Y5Y0]	4.18

target: T6, SNTA1, Q13424; assay: holdup assay; parameters: key: below the threshold = too weak to quantify, mostly under pKd 3.1 to 4; conditions: plain residues with an end cap or a label only (N-terminal biotin on a linker: ado-ado)

Binder	pKd
SAAKVLTSMC [GHRHR, Q02643]	below the threshold
QSARLWETSI [ADAM22, Q9P0K1]	4.49
MLSKQSESAI [FLVCR1, Q9Y5Y0]	3.73

target: DLG1_2, Q12959; assay: holdup assay; parameters: key: below the threshold = too weak to quantify, mostly under pKd 3.1 to 4; conditions: plain residues with an end cap or a label only (N-terminal biotin on a linker: ado-ado)
Sequence (Q12959 314-412): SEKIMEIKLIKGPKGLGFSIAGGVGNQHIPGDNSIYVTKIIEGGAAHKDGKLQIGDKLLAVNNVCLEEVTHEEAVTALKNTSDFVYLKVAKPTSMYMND

Binder	pKd
SAAKVLTSMC [GHRHR, Q02643]	below the threshold
QSARLWETSI [ADAM22, Q9P0K1]	4.47
MLSKQSESAI [FLVCR1, Q9Y5Y0]	3.82

target: T7, SYNJ2BP, P57105; assay: holdup assay; parameters: key: below the threshold = too weak to quantify, mostly under pKd 3.1 to 4; conditions: plain residues with an end cap or a label only (N-terminal biotin on a linker: ado-ado)

Binder	pKd
SAAKVLTSMC [GHRHR, Q02643]	3.59
QSARLWETSI [ADAM22, Q9P0K1]	5.2
MLSKQSESAI [FLVCR1, Q9Y5Y0]	4.52

target: LIMK2, P53671; assay: holdup assay; parameters: key: below the threshold = too weak to quantify, mostly under pKd 3.1 to 4; conditions: plain residues with an end cap or a label only (N-terminal biotin on a linker: ado-ado)
Sequence (P53671 143-248): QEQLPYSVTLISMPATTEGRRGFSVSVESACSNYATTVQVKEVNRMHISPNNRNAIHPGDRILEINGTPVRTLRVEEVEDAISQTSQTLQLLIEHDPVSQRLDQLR

Binder	pKd
SAAKVLTSMC [GHRHR, Q02643]	below the threshold
QSARLWETSI [ADAM22, Q9P0K1]	below the threshold
MLSKQSESAI [FLVCR1, Q9Y5Y0]	below the threshold

target: T8, NHERF3_3, Q5T2W1; assay: holdup assay; parameters: key: below the threshold = too weak to quantify, mostly under pKd 3.1 to 4; conditions: plain residues with an end cap or a label only (N-terminal biotin on a linker: ado-ado)

Binder	pKd
SAAKVLTSMC [GHRHR, Q02643]	below the threshold
QSARLWETSI [ADAM22, Q9P0K1]	below the threshold
MLSKQSESAI [FLVCR1, Q9Y5Y0]	below the threshold

target: T9, GRIP1_7, Q9Y3R0; assay: holdup assay; parameters: key: below the threshold = too weak to quantify, mostly under pKd 3.1 to 4; conditions: plain residues with an end cap or a label only (N-terminal biotin on a linker: ado-ado)

Binder	pKd
SAAKVLTSMC [GHRHR, Q02643]	below the threshold
QSARLWETSI [ADAM22, Q9P0K1]	below the threshold
MLSKQSESAI [FLVCR1, Q9Y5Y0]	below the threshold

target: DLG2_2, Q15700; assay: holdup assay; parameters: key: below the threshold = too weak to quantify, mostly under pKd 3.1 to 4; conditions: plain residues with an end cap or a label only (N-terminal biotin on a linker: ado-ado)

Binder	pKd
SAAKVLTSMC [GHRHR, Q02643]	below the threshold
QSARLWETSI [ADAM22, Q9P0K1]	3.85
MLSKQSESAI [FLVCR1, Q9Y5Y0]	below the threshold

target: T10, GRIP1_3, Q9Y3R0; assay: holdup assay; parameters: key: below the threshold = too weak to quantify, mostly under pKd 3.1 to 4; conditions: plain residues with an end cap or a label only (N-terminal biotin on a linker: ado-ado)

Binder	pKd
SAAKVLTSMC [GHRHR, Q02643]	below the threshold
QSARLWETSI [ADAM22, Q9P0K1]	below the threshold
MLSKQSESAI [FLVCR1, Q9Y5Y0]	below the threshold

target: Inadl_5, Q8NI35; assay: holdup assay; parameters: key: below the threshold = too weak to quantify, mostly under pKd 3.1 to 4; conditions: plain residues with an end cap or a label only (N-terminal biotin on a linker: ado-ado)
Sequence (Q8NI35 673-780): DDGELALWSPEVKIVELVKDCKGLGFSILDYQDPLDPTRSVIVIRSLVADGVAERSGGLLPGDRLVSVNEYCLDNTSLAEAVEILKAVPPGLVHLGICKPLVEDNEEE

Binder	pKd
SAAKVLTSMC [GHRHR, Q02643]	below the threshold
QSARLWETSI [ADAM22, Q9P0K1]	below the threshold
MLSKQSESAI [FLVCR1, Q9Y5Y0]	below the threshold

target: T11, TX1BP3, O14907; assay: holdup assay; parameters: key: below the threshold = too weak to quantify, mostly under pKd 3.1 to 4; conditions: plain residues with an end cap or a label only (N-terminal biotin on a linker: ado-ado)

Binder	pKd
SAAKVLTSMC [GHRHR, Q02643]	3.54
QSARLWETSI [ADAM22, Q9P0K1]	4.8
MLSKQSESAI [FLVCR1, Q9Y5Y0]	4.1

target: T12, MPP7, Q5T2T1; assay: holdup assay; parameters: key: below the threshold = too weak to quantify, mostly under pKd 3.1 to 4; conditions: plain residues with an end cap or a label only (N-terminal biotin on a linker: ado-ado)

Binder	pKd
SAAKVLTSMC [GHRHR, Q02643]	below the threshold
QSARLWETSI [ADAM22, Q9P0K1]	4.22
MLSKQSESAI [FLVCR1, Q9Y5Y0]	below the threshold

target: HTRA1, Q92743; assay: holdup assay; parameters: key: below the threshold = too weak to quantify, mostly under pKd 3.1 to 4; conditions: plain residues with an end cap or a label only (N-terminal biotin on a linker: ado-ado)
Sequence (Q92743 360-477): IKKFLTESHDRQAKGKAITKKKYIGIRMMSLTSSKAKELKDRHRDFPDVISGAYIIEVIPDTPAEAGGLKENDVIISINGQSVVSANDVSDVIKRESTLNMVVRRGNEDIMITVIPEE

Binder	pKd
SAAKVLTSMC [GHRHR, Q02643]	3.55
QSARLWETSI [ADAM22, Q9P0K1]	3.92
MLSKQSESAI [FLVCR1, Q9Y5Y0]	below the threshold

target: GRIP2_7, Q9C0E4; assay: holdup assay; parameters: key: below the threshold = too weak to quantify, mostly under pKd 3.1 to 4; conditions: plain residues with an end cap or a label only (N-terminal biotin on a linker: ado-ado)
Sequence (Q9C0E4 934-1023): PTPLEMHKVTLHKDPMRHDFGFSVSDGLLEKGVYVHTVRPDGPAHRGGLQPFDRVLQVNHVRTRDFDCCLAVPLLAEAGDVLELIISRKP

Binder	pKd
SAAKVLTSMC [GHRHR, Q02643]	below the threshold
QSARLWETSI [ADAM22, Q9P0K1]	below the threshold
MLSKQSESAI [FLVCR1, Q9Y5Y0]	below the threshold
